In assay [1] the target is CCR3 (human) (UniProt P51677). The assay is described as follows: cell-based or functional assay.
Assay [2] concerns the target T1, hCCR2b (human, UniProt P41597 1-374).
T1 chain: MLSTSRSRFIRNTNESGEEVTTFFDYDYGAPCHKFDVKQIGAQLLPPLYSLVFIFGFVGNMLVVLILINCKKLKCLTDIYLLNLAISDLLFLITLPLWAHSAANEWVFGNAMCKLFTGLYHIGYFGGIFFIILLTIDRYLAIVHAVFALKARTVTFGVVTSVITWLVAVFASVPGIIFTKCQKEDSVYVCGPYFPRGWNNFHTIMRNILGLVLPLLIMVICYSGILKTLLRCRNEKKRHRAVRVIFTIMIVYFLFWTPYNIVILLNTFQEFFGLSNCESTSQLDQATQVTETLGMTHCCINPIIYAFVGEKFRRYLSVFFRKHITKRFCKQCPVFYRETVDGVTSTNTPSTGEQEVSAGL
The assay is described as follows: cell-based or functional assay.

The target of assay [3] is CCR5 (human) (UniProt P51681). In words: cell-based or functional assay.
Chain of CCR5 (human) (P51681 whole entry): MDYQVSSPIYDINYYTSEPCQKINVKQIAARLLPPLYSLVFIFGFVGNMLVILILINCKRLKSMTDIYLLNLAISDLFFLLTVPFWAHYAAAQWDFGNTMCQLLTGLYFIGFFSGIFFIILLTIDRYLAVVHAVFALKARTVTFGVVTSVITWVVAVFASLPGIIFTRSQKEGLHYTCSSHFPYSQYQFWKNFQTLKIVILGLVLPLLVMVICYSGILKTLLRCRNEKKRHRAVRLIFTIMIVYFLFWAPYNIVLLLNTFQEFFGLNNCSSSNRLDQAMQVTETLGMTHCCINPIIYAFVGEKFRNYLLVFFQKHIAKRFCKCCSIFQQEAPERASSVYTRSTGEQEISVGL
For assay [4], the target named is CCR9 (human) (UniProt P51686). The assay is described as follows: cell-based or functional assay.
Chain of CCR9 (human) (P51686 whole entry): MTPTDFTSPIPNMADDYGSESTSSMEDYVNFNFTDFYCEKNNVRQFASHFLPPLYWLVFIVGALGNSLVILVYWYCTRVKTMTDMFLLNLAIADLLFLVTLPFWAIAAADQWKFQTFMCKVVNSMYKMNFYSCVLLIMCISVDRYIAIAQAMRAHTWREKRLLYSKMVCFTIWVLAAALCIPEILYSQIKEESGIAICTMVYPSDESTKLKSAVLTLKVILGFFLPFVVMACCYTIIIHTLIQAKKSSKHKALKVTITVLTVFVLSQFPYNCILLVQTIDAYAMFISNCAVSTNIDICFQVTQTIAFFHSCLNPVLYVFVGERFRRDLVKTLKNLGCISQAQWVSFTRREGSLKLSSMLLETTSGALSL
Assay [5] addresses CCR1 (UniProt P32246). The assay is described as follows: in vitro depletion: biotinylated RANTES coupled matrix, flow cytometry for CCR1, 3 or 5-expressing cells (receptor not singled out). (In general: Flow cytometry measures light scatter and fluorescence of single cells or particles in a stream.)
In assay [6] the target is CCR5 (human) (UniProt P51681). Described as above.
Assay [7] addresses CCR3 (human) (UniProt P51677). Described as above.
Assay [8] addresses CCR3 (human) (UniProt P51677). In words: in vitro depletion: blood passed through magnetic column with eotaxin coupled MACS beads, flow cytometry for CCR3-expressing cells.

Chain of CCR3 (human) (P51677 whole entry): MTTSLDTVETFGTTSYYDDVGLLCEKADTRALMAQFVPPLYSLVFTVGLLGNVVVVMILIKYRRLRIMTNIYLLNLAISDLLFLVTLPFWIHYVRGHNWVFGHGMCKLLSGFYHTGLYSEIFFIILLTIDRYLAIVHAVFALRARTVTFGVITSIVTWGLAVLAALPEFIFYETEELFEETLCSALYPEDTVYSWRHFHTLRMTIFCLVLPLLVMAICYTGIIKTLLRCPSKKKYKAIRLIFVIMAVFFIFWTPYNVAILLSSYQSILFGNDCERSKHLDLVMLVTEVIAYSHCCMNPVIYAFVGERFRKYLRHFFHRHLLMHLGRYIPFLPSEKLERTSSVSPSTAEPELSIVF
Chain of CCR1 (P32246 whole entry): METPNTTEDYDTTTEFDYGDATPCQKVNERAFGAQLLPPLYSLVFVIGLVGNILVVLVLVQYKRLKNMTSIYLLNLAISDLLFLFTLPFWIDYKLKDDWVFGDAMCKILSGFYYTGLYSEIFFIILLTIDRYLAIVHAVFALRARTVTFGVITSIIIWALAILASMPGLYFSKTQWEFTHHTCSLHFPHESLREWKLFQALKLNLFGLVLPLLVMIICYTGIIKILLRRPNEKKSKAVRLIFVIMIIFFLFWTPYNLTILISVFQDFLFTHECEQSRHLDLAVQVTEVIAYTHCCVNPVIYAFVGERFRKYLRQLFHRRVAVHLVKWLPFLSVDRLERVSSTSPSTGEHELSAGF

As to biotinEotaxin (CCL11) (ligand), the EC50, Aequorin assay (antagonist) in assay [1] worked out at 212 nM.
biotinMCP-2 (CCL8) (ligand) yielded an EC50, Aequorin assay (partial agonist) in assay [2] of 50.9 nM.
With biotinRANTES (CCL5) (ligand), the EC50, Aequorin assay (agonist activity) in assay [3] was 0.5 nM.
For “biotinTECK(Met to Nleu substitution) (ligand)”, in assay [4], the EC50, Aequorin assay (agonist activity) came to 63.6 nM.
For the molecule “biotinylated RANTES coupled matrix (ligand)”, the reduction of receptor-expressing cells by the column in assay [5], in assay [6] and in assay [7] was 20% in each case.
Molecule “biotinylated eotaxin coupled matrix (ligand)” returned a reduction of receptor-expressing cells by the column in assay [8] of 25%.
As to “recombinant native TECK (from UniProt O15444 24-150) (ligand)”, the EC50, Aequorin assay (agonist activity) in assay [4] came out at 67.9 nM.
In turn, recombinant native eotaxin (ligand) came in with an EC50, Aequorin assay (agonist) in assay [1] of 10.7 nM.

B1: recombinant native MCP-2 (ligand, UniProt P80075 24-99, looked up)
chain: QPDSVSIPITCCFNVINRKIPIQRLESYTRITNIQCPKEAVIFKTKRGKEVCADPKERWVRDSMKHLDQIFQNLKP
On to B1, for which the “EC50, Aequorin assay (partial agonist)” value in assay [2] was 23.5 nM.

(Values after patent EP2718310B1 (TLA Targeted Immunotherapies AB, dated 2017).)
